Data as given in patent US20110118131A1 (published 2011).
Residue numbers refer to the chain shown, from its start. In names and notes the source's numbering stands.

B1: XPA23 light chain A51S (Fab, V domains shown)
VH: EVQLLESGGGLVQPGGSLRLSCAASGFTFSKYFMFWVRQAPGKGLEWVSVISPSGGMTRYADSVKGRFTISRDNSKNTLYLQMNSLRAEDTAVYYCARVGYGGNSDYWGQGTLVTVSS
VL: DIQMTQSPSSVSASVGDRLTIICRASQDINRWLAWYQQTPGNAPKLLIHSSTSLQSGVPSRFSGSGSGTDFTLTINSLQPEDFATYYCQQADSFPLTFGGGTKVEIK
B2: XPA23 light chain D92E (Fab, V domains shown)
VH: B1 VH
VL: B1 VL with S51A, D92E
B3: XPA23 light chain D28L (Fab, V domains shown)
VH: B1 VH
VL: B1 VL with D28L, S51A
B4: XPA23 light chain D28H (Fab, V domains shown)
VH: B1 VH
VL: B1 VL with D28H, S51A
B5: XPA23 light chain D92W (Fab, V domains shown)
VH: B1 VH
VL: B1 VL with S51A, D92W
B6: XPA23 light chain A51V (Fab, V domains shown)
VH: B1 VH
VL: B1 VL with S51V
B7: XPA23 light chain A91Y (Fab, V domains shown)
VH: B1 VH
VL: B1 VL with S51A, A91Y
B8: XPA23 light chain A91F (Fab, V domains shown)
VH: B1 VH
VL: B1 VL with S51A, A91F
B9: XPA23 light chain D92F (Fab, V domains shown)
VH: B1 VH
VL: B1 VL with S51A, D92F
B10: XPA23 light chain D28A (Fab, V domains shown)
VH: B1 VH
VL: B1 VL with D28A, S51A
B11: XPA23 light chain D28S (Fab, V domains shown)
VH: B1 VH
VL: B1 VL with D28S, S51A
B12: XPA23 light chain D28K (Fab, V domains shown)
VH: B1 VH
VL: B1 VL with D28K, S51A
B13: XPA23 light chain A91R (Fab, V domains shown)
VH: B1 VH
VL: B1 VL with S51A, A91R
B14: XPA23 light chain F94H (Fab, V domains shown)
VH: B1 VH
VL: B1 VL with S51A, F94H
B15: XPA23 light chain D92R (Fab, V domains shown)
VH: B1 VH
VL: B1 VL with S51A, D92R
B16: XPA23 light chain D28Y (Fab, V domains shown)
VH: B1 VH
VL: B1 VL with D28Y, S51A
B17: XPA23 light chain F94D (Fab, V domains shown)
VH: B1 VH
VL: B1 VL with S51A, F94D
B18: XPA23 light chain A91W (Fab, V domains shown)
VH: B1 VH
VL: B1 VL with S51A, A91W
B19: XPA23 light chain D92H (Fab, V domains shown)
VH: B1 VH
VL: B1 VL with S51A, D92H
B20: XPA23 light chain A91H (Fab, V domains shown)
VH: B1 VH
VL: B1 VL with S51A, A91H
B21: XPA23 light chain D28E (Fab, V domains shown)
VH: B1 VH
VL: B1 VL with D28E, S51A
B22: XPA23 light chain D92S (Fab, V domains shown)
VH: B1 VH
VL: B1 VL with S51A, D92S
B23: XPA23 light chain D28W (Fab, V domains shown)
VH: B1 VH
VL: B1 VL with D28W, S51A
B24: XPA23 light chain D28I (Fab, V domains shown)
VH: B1 VH
VL: B1 VL with D28I, S51A
B25: XPA23 light chain A91S (Fab, V domains shown)
VH: B1 VH
VL: B1 VL with S51A, A91S
B26: XPA23 light chain D28P (Fab, V domains shown)
VH: B1 VH
VL: B1 VL with D28P, S51A
B27: XPA23 light chain F94E (Fab, V domains shown)
VH: B1 VH
VL: B1 VL with S51A, F94E
B28: XPA23 light chain D28G (Fab, V domains shown)
VH: B1 VH
VL: B1 VL with D28G, S51A
B29: XPA23 light chain D92N (Fab, V domains shown)
VH: B1 VH
VL: B1 VL with S51A, D92N
B30: XPA23 light chain A91Q (Fab, V domains shown)
VH: B1 VH
VL: B1 VL with S51A, A91Q
B31: XPA23 light chain A91D (Fab, V domains shown)
VH: B1 VH
VL: B1 VL with S51A, A91D
B32: XPA23 light chain D28T (Fab, V domains shown)
VH: B1 VH
VL: B1 VL with D28T, S51A
B33: XPA23 light chain A51T (Fab, V domains shown)
VH: B1 VH
VL: B1 VL with S51T
B34: XPA23 light chain D92K (Fab, V domains shown)
VH: B1 VH
VL: B1 VL with S51A, D92K
B35: XPA23 light chain D28F (Fab, V domains shown)
VH: B1 VH
VL: B1 VL with D28F, S51A
B36: XPA23 light chain A91N (Fab, V domains shown)
VH: B1 VH
VL: B1 VL with S51A, A91N
B37: XPA23 light chain D92Y (Fab, V domains shown)
VH: B1 VH
VL: B1 VL with S51A, D92Y
B38: XPA23 light chain F94K (Fab, V domains shown)
VH: B1 VH
VL: B1 VL with S51A, F94K
B39: XPA23 light chain A51Y (Fab, V domains shown)
VH: B1 VH
VL: B1 VL with S51Y
B40: XPA23 light chain D92Q (Fab, V domains shown)
VH: B1 VH
VL: B1 VL with S51A, D92Q
B41: XPA23 light chain A91E (Fab, V domains shown)
VH: B1 VH
VL: B1 VL with S51A, A91E
B42: XPA23 light chain D28R (Fab, V domains shown)
VH: B1 VH
VL: B1 VL with D28R, S51A
B43: XPA23 light chain D28N (Fab, V domains shown)
VH: B1 VH
VL: B1 VL with D28N, S51A
B44: XPA23 light chain A51W (Fab, V domains shown)
VH: B1 VH
VL: B1 VL with S51W
B45: XPA23 light chain D28V (Fab, V domains shown)
VH: B1 VH
VL: B1 VL with D28V, S51A

Each binder was assayed against T1, IL-1β (UniProt P01584 117-269) (assay: Biacore, periplasmic extract).
T1 construct: Antigen immobilised on the Biacore chip

Row | fold difference in affinity vs original | binding result | Binder
1 | 0.95 fold |  | B1
2 | 0.99 fold |  | B2
3 | 9.64 fold |  | B3
4 | 1.23 fold |  | B4
5 | 0.12 fold |  | B5
6 | 0.31 fold |  | B6
7 |  | no binding | B7
8 |  | no binding | B8
9 | 0.26 fold |  | B9
10 | 0.88 fold |  | B10
11 | 5.25 fold |  | B11
12 | 0.82 fold |  | B12
13 |  | no binding | B13
14 |  | no binding | B14
15 |  | no binding | B15
16 | 1.45 fold |  | B16
17 |  | no binding | B17
18 |  | no binding | B18
19 | 0.63 fold |  | B19
20 | 1.12 fold |  | B20
21 | 0.74 fold |  | B21
22 | 6.59 fold |  | B22
23 | 3.81 fold |  | B23

Row | fold difference in affinity vs original | binding result | Binder
24 |  | no binding | B24
25 | 0.9 fold |  | B25
26 | 1.17 fold |  | B26
27 |  | no binding | B27
28 | 1.21 fold |  | B28
29 | 0.67 fold |  | B29
30 |  | no binding | B30
31 | 1.08 fold |  | B31
32 | 1.19 fold |  | B32
33 | 0.76 fold |  | B33
34 | 0.23 fold |  | B34
35 | 1.43 fold |  | B35
36 | 0.1 fold |  | B36
37 |  | no binding | B37
38 |  | no binding | B38
39 | 0.45 fold |  | B39
40 | 0.56 fold |  | B40
41 | 0.1 fold |  | B41
42 | 0.94 fold |  | B42
43 | 1 fold |  | B43
44 | 0.24 fold |  | B44
45 | 0.85 fold |  | B45
